# Reference: the RNAGym collection of RNA variant scans (doi:10.7554/elife.80360)
# B1: CPEB3 Ribozyme (parent)
# chain: GGGGGCCACAGCAGAAGCGUUCACGUCGCGGCCCCUGUCAGAUUCUGGUGAAUCUGCGAAUUCUGCUGU
# Variants of: B1
# Assay: self-cleavage, relative activity (ratio to wild type); higher = more cleavage; co-transcriptional
row,Variant,self-cleavage
1,G48C C63G,0.829
2,G50A G65C,0.683
3,G48A A60G,0.916
4,U49A G56C,0.765
5,G48C U55C,0.963
6,G48C U55G,0.864
7,U49A C63U,0.94
8,G47U U67G,1.01
9,G47U U67A,0.99
10,G47U G56U,0.983
11,G47U U49C,0.991
12,G47U U49A,1.01
13,U49C U64G,0.909
14,U49C U64A,0.89
15,G47U G50U,1.04
16,U49C G58C,0.993
17,U49G G50U,0.993
18,U49G G50C,0.975
19,U49A G50U,0.986
20,G50A U53A,0.903
21,U49G A60C,0.338
22,G48C C66U,0.998
23,U49G C54G,0.925
24,U49G C54A,0.907

row,Variant,self-cleavage
1,G48C U61A,0.962
2,U49G U69A,1.01
3,U49G U69C,1.06
4,G48A U55A,0.99
5,G47U U64C,0.943
6,G47U U64A,0.904
7,U49C U61C,0.816
8,U49C U61A,0.911
9,U49A A52C,1
10,U49A A52U,1.02
11,U49A G58A,1.01
12,G50A A51C,1.02
13,U49G G58U,0.957
14,U49G G58C,1
15,G50A C66G,0.902
16,G50A C66A,0.848
17,G47U G68A,0.991
18,G47U G68U,1.01
19,G47U G68C,1.01
20,G47C U67A,1.04
21,G47U A51G,0.998
22,U49A U53C,0.991
23,G50A A59C,0.806
24,G50A G58C,1

row,Variant,self-cleavage
1,G48C A59U,0.861
2,G48C U53A,0.968
3,G48A G56U,0.972
4,G50A A52G,1
5,G50A C63U,0.986
6,G48C G68U,0.985
7,G48C G68C,0.992
8,U49G A52G,0.94
9,G48U G65A,0.961
10,G47C U69A,0.99
11,G47C U69G,1.06
12,G50A G56U,0.905
13,G50A G56C,0.675
14,G47U U62A,0.983
15,G48U A60U,0.561
16,U49G U61G,0.991
17,U49C G56U,0.948
18,U49C G56A,0.935
19,G48U U55A,1
20,G48U C66G,0.937
21,G50A C57U,0.356
22,G50A C57A,0.448
23,U49G U67C,0.964
24,G48C C54G,0.919

row,Variant,self-cleavage
1,G48C C54A,0.921
2,U49A G68U,0.982
3,U49A U67C,0.99
4,U49A U67G,1.03
5,U49C A51G,1.03
6,G47U A59U,0.833
7,U49G C66A,0.891
8,G50A C54G,0.848
9,G50A C54U,0.992
10,G48A G58C,0.98
11,G48A G58U,0.987
12,U49C G50A,0.981
13,G48A G68U,1.01
14,G48A G68A,1.01
15,G48A U69G,1.07
16,U49A C66U,0.998
17,U49A U62G,0.919
18,U49G A51U,0.95
19,U49G A51G,0.981
20,U49A G65U,0.821
21,G48A U53A,1.03
22,G48A U53C,0.958
23,G48A U53G,0.987
24,U49A U69C,1.06

row,Variant,self-cleavage
1,U49A U69A,0.976
2,U49C A60G,0.955
3,U49C U55G,0.816
4,G48U G58C,0.999
5,G48U A59G,0.993
6,G48U U61G,0.958
7,U49A U61C,0.91
8,U49G G68C,0.958
9,U49G G68A,1
10,U49G U53G,0.585
11,U49G U53A,0.918
12,U49G U53C,0.98
13,U49A U55G,0.907
14,U49A U55C,0.895
15,U49G U64G,0.926
16,U49G U64C,0.932
17,G48C G58U,0.969
18,G48U C54A,0.994
19,G48U C54U,1.02
20,U49C C63U,0.993
21,G48A U62A,0.973
22,G47U C63U,1.01
23,G47U C63A,0.944
24,G47U C63G,0.905

row,Variant,self-cleavage
1,G47U G48U,1.01
2,G47U G48A,1.03
3,G47U A52C,1.02
4,G47U A52G,0.987
5,G48A C57A,0.329
6,G48C U62A,0.994
7,G48C U62C,0.946
8,U49A U64A,0.942
9,G48C G56U,0.962
10,G48A U49A,0.984
11,G50A G68A,1.03
12,G48A A51G,1.03
13,G47U C54G,0.975
14,G47C U64C,0.956
15,G50A U55C,0.79
16,U49A A51G,1.05
17,U49A A51C,0.633
18,G50A,0.999
19,G48U U62A,0.922
20,G48U U62G,0.927
21,G48U U53A,1
22,G47U U55C,0.979
23,U49A,1
24,U49G,0.996

row,Variant,self-cleavage
1,U49C,0.988
2,U49C U62A,0.98
3,U49C C66A,0.77
4,U49A C57U,0.379
5,G47U G65A,0.953
6,G47U G65U,0.946
7,G47U U61C,0.937
8,G48C U64G,0.974
9,G48C U64A,0.864
10,U49C C54A,0.782
11,U49G A59U,0.835
12,U49G A59G,0.96
13,U49G U55A,0.968
14,G48C U69G,1.05
15,G48C U69A,1.01
16,G48C A60G,0.948
17,G48C C57U,0.32
18,G47U U53A,1.01
19,G48C A51C,1.02
20,G48C A51U,0.976
21,G48U C57U,0.388
22,G48U C57G,0.398
23,U49G G65A,0.97
